In this data set the test system is Tenascin-C (human). Briefly: competition.

As usually defined, the EC50 is the concentration giving half of the maximal effect. Low readings indicate higher potency in that assay, high ones lower potency in that assay. Turning to (TTA1-MAG2)2P5 aptamer dimer (22A), for the setting “two TTA1-MAG2 joined via bis-maleimide peptide linker P5 (bAla-Ser-Ser-Ser-Dpr-Met-Cys-Ser-Ser-Ser-Lys), competition binding assay against the lead compound”, the EC50 is 3.6 nM.

In general, IC50 refers to the point on the concentration scale where inhibition reaches its midpoint. Consider “TTA1-MAG2 aptamer monomer (2A, lead compound)”, for which the IC50 (MAG2 conjugate, monomer comparator) came out at 5.6 nM.

(Values after patent US20080207523.)
